Assay: Activity of enzymes to degrade glycogen under neutral pH
Format: biochemical
Settings: neutral pH of the cellular environment

B1: human pancreatic α-amylase: enzyme component of VAL-0417, degrades glycogen (protein, UniProt P04746 16-511, looked up)
Pancreatic alpha-amylase: QYSPNTQQGRTSIVHLFEWRWVDIALECERYLAPKGFGGVQVSPPNENVAIYNPFRPWWERYQPVSYKLCTRSGNEDEFRNMVTRCNNVGVRIYVDAVINHMCGNAVSAGTSSTCGSYFNPGSRDFPAVPYSGWDFNDGKCKTGSGDIENYNDATQVRDCRLTGLLDLALEKDYVRSKIAEYMNHLIDIGVAGFRLDASKHMWPGDIKAILDKLHNLNSNWFPAGSKPFIYQEVIDLGGEPIKSSDYFGNGRVTEFKYGAKLGTVIRKWNGEKMSYLKNWGEGWGFVPSDRALVFVDNHDNQRGHGAGGASILTFWDARLYKMAVGFMLAHPYGFTRVMSSYRWPRQFQNGNDVNDWVGPPNNNGVIKEVTINPDTTCGNDWVCEHRWRQIRNMVIFRNVVDGQPFTNWYDNGSNQVAFGRGNRGFIVFNNDDWSFSLTLQTGLPAGTYCDVISGDKINGNCTGIKIYVSDDGKAHFSISNSAEDPFIAIHAESKL
With B1 the “activity to degrade glycogen” value was “best activity”.

Reference: patent US20230173037A1, “Manipulating Glycogen in Alzheimer’s Disease, Epilepsy, Traumatic Brain Injury, and ALS as a Treatment” (University of Kentucky Research Foundation, priority 2020, published 2023)
